Experimental findings from publication PMC6075034 are described below.

T1: Yra1 (Saccharomyces cerevisiae, UniProt Q12159 1-226)
T1 sequence: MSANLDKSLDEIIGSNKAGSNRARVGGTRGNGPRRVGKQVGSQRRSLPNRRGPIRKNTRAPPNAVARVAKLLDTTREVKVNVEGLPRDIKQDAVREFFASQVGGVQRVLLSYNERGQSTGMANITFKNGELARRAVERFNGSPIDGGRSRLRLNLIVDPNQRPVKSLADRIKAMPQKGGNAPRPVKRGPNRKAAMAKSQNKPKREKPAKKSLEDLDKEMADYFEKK

B1: RNA-25 ssRNA (ssRNA)
RNA: GUGUAAUGUUGUUGCACGGCACGCU
B2: 25-bp dsRNA (RNA-25 + complementary RNA; RNA-25C is printed identical to RNA-25, apparent misprint, complement built) (dsRNA)
RNA 1: GUGUAAUGUUGUUGCACGGCACGCU
RNA 2: AGCGUGCCGUGCAACAACAUUACAC
B3: DNA-25C ssDNA (ssDNA)
DNA: AGCGTGCCGTGCAACAACATTACAC
B4: 25-bp RNA-DNA hybrid (RNA-25/DNA-25C) (DNA:RNA)
RNA: GUGUAAUGUUGUUGCACGGCACGCU
DNA: AGCGTGCCGTGCAACAACATTACAC

The target of this data set is T1, Yra1. Description: EMSA. In general terms: In EMSA bound probe runs differently from free probe, usually more slowly.
For B1, the binding result is “binds”.
On to B2, for which the binding result is recorded as “binds”.
Consider B3, for which the binding result is “binds”.
Take B4: the binding result was “binds”.
